Test results from patent US20100081575A1 (published 2010).

Target: T1, ovalbumin (UniProt P01012 2-386)
T1 sequence (looked up): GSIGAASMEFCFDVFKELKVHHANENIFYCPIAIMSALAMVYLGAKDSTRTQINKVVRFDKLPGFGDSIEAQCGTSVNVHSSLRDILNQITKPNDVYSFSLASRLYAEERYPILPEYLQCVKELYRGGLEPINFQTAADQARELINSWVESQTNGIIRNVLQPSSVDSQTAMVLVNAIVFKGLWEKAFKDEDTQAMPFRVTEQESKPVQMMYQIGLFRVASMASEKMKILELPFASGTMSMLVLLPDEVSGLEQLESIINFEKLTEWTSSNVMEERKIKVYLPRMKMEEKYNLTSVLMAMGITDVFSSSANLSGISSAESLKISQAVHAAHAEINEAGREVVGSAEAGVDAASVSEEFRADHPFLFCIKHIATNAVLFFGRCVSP
Assay: phage ELISA, anti-HA or anti-M13 detection

B1: 2G12 domain exchanged Fab fragment displayed on phage, expressed from the 2G12 pCAL G13 vector (SEQ ID NO: 11) (Fab, not shown: small tags and cut ends; large carriers)
heavy 1: EVQLVESGGGLVKAGGSLILSCGVSNFRISAHTMNWVRRVPGGGLEWVASISTSSTYRDYADAVKGRFTVSRDDLEDFVYLQMHKMRVEDTAIYYCARKGSDRLSDNDPFDAWGPGTVVTVSPASTKGPSVFPLAPSSKSTSGGTAALGCLVKDYFPEPVTVSWNSGALTSGVHTFPAVLQSSGLYSLSSVVTVPSSSLGTQTYICNVNHKPSNTKVDKKVEPKSCLRYPYDVPDYA
heavy 2: EVQLVESGGGLVKAGGSLILSCGVSNFRISAHTMNWVRRVPGGGLEWVASISTSSTYRDYADAVKGRFTVSRDDLEDFVYLQMHKMRVEDTAIYYCARKGSDRLSDNDPFDAWGPGTVVTVSPASTKGPSVFPLAPSSKSTSGGTAALGCLVKDYFPEPVTVSWNSGALTSGVHTFPAVLQSSGLYSLSSVVTVPSSSLGTQTYICNVNHKPSNTKVDKKVEPKSCLRYPYDVPDYA
light: AGVVMTQSPSTLSASVGDTITITCRASQSIETWLAWYQQKPGKAPKLLIYKASTLKTGVPSRFSGSGSGTEFTLTISGLQFDDFATYHCQHYAGYSATFGQGTRVEIKRTVAAPSVFIFPPSDEQLKSGTASVVCLLNNFYPREAKVQWKVDNALQSGNSQESVTEQDSKDSTYSLSSTLTLSKADYEKHKVYACEVTHQGLSSPVTKSFNRGEC
notes: also called 2G12 Fab; 2G12 alone
Q: Does B1 bind?
A: no binding

B2: 2G12 domain exchanged Fab fragment displayed on phage, expressed from the 2G12 pCAL A1 vector (SEQ ID NO: 217) (Fab)
heavy 1: EVQLVESGGGLVKAGGSLILSCGVSNFRISAHTMNWVRRVPGGGLEWVASISTSSTYRDYADAVKGRFTVSRDDLEDFVYLQMHKMRVEDTAIYYCARKGSDRLSDNDPFDAWGPGTVVTVSPASTKGPSVFPLAPSSKSTSGGTAALGCLVKDYFPEPVTVSWNSGALTSGVHTFPAVLQSSGLYSLSSVVTVPSSSLGTQTYICNVNHKPSNTKVDKKVEPKSCLR
heavy 2: EVQLVESGGGLVKAGGSLILSCGVSNFRISAHTMNWVRRVPGGGLEWVASISTSSTYRDYADAVKGRFTVSRDDLEDFVYLQMHKMRVEDTAIYYCARKGSDRLSDNDPFDAWGPGTVVTVSPASTKGPSVFPLAPSSKSTSGGTAALGCLVKDYFPEPVTVSWNSGALTSGVHTFPAVLQSSGLYSLSSVVTVPSSSLGTQTYICNVNHKPSNTKVDKKVEPKSCLR
light: AGVVMTQSPSTLSASVGDTITITCRASQSIETWLAWYQQKPGKAPKLLIYKASTLKTGVPSRFSGSGSGTEFTLTISGLQFDDFATYHCQHYAGYSATFGQGTRVEIKRTVAAPSVFIFPPSDEQLKSGTASVVCLLNNFYPREAKVQWKVDNALQSGNSQESVTEQDSKDSTYSLSSTLTLSKADYEKHKVYACEVTHQGLSSPVTKSFNRGEC
Q: Does B2 bind?
A: no binding
